Numbered stars: 1 amine (or outer) side, 2 acyl side, 3 side chain; on linkers, the order of the positions; unused ones are H or OH. Square brackets hold non-standard residues; d marks the D form. Side chains are listed from the residue outwards. Ends that are not written are not given here. * marks the point of attachment. C20 diacid = O=C(O)CCCCCCCCCCCCCCCCCCC(=O)*; γGlu = O=C(O)[C@H](CCC(=O)[*:2])N[*:1]; αMeL = CC(C)C[C@](C)(N)C(=O)O; AEEA = NCCOCCOCC(=O)O; Aib = CC(C)(N)C(=O)O
T1: human GIP receptor (human, UniProt P48546 22-466)
T1 construct: whole, on cells; Used as crude membranes of stably transfected CHO cells; also called hGIPR
T1 sequence (looked up): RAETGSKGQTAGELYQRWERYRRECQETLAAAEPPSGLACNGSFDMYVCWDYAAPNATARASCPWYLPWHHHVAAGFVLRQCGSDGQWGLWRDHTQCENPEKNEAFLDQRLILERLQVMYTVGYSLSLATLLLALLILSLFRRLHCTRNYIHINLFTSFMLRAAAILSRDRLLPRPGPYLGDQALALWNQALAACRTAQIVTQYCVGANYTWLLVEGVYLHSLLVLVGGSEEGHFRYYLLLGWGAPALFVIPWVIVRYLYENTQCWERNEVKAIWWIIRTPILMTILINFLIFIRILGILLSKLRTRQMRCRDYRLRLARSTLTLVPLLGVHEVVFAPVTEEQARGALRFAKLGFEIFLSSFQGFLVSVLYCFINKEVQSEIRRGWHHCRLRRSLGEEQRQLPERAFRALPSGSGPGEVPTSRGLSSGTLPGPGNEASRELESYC


Experiments:
human GIP receptor = target: T1, human GIP receptor; test: SPA, [125I]-GIP displacement, hGIPR membranes
human GLP-1 receptor = target: T2, human GLP-1 receptor (human, UniProt P43220 24-463); test: SPA, [125I]-GLP-1 displacement, hGLP-1R membranes
T2 construct: whole, on cells; Used as crude membranes of stably transfected HEK293 cells; also called hGLP1R; hGLP-1R

human glucagon receptor = target: T3, human glucagon receptor (human, UniProt P47871 26-477); test: SPA, [125I]-Gcg displacement, hGcgR membranes
T3 construct: whole, on cells; Used as crude membranes of stably transfected HEK293 cells; also called hGcgR; hGLcgR
T3 sequence (P47871 26-477): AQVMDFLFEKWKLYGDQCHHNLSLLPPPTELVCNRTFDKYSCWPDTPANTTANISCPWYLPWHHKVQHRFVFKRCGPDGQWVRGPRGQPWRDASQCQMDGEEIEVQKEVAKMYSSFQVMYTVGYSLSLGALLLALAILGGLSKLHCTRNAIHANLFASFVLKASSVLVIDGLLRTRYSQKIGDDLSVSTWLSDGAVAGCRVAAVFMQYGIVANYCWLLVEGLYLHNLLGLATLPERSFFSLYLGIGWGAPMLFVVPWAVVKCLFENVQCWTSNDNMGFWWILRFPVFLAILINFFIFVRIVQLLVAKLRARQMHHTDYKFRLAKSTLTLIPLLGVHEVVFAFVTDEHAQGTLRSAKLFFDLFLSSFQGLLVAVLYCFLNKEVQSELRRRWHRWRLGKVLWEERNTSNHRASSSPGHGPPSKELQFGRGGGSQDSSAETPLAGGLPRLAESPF

Row | Binder | Ki (human GIP receptor) [nM] | Ki (human GLP-1 receptor) [nM] | Ki (human glucagon receptor) [nM]
1 | YXEGTFTSDYSIXLDSKAQXAFIEYLIEGGPSSGAPPPS (Aib2; αMeL13; K17((2-[2-(2-Amino-ethoxy)-ethoxy]-acetyl)2-(γ-Glu)-CO-(CH2)18-CO2H); Aib20; C-terminal NH2) [Example 52] | 0.0342 | 5.81 | 
2 | YXEGTFTSDYSXLLDKKAQXAFIEYLIEGGPSSGAPPPS (Aib2; D-Ile12; K17((2-[2-(2-Amino-ethoxy)-ethoxy]-acetyl)2-(γ-Glu)-CO-(CH2)18-CO2H); Aib20; C-terminal NH2) [Example 82] | 14.9 | 6.82 | 
3 | YXEGTFTSDYSILLDKKAQXAFIXYLIEGGPSSGAPPPS (Aib2; K17((2-[2-(2-Amino-ethoxy)-ethoxy]-acetyl)2-(γ-Glu)-CO-(CH2)18-CO2H); Aib20; D-Glu24; C-terminal NH2) [Example 84] | 0.143 | 10.2 | 
4 | YXEGTXTSDESILLDKKAQXAFIEYLIEGGPSSGAPPPS (Aib2; αMeF6; K17((2-[2-(2-Amino-ethoxy)-ethoxy]-acetyl)2-(γ-Glu)-CO-(CH2)18-CO2H); Aib20; C-terminal NH2) [Example 130] | 0.177 | 3.66 | 
5 | H[Aib]EGTFTSDYSI[αMeL]LDEK([AEEA-AEEA-γGlu-C20 diacid])AQHAFIEYLIEGGPSSGAPPPS-NH2 (N-terminus assumed; SMILES CC[C@H](C)[C@H](NC(=O)[C@H](CC(C)C)NC(=O)[C@H](Cc1ccc(O)cc1)NC(=O)[C@H](CCC(=O)O)NC(=O)[C@@H](NC(=O)[C@H](Cc1ccccc1)NC(=O)[C@H](C)NC(=O)[C@H](Cc1c[nH]cn1)NC(=O)[C@H](CCC(N)=O)NC(=O)[C@H](C)NC(=O)[C@H](CCCCNC(=O)COCCOCCNC(=O)COCCOCCNC(=O)CC[C@H](NC(=O)CCCCCCCCCCCCCCCCCCC(=O)O)C(=O)O)NC(=O)[C@H](CCC(=O)O)NC(=O)[C@H](CC(=O)O)NC(=O)[C@H](CC(C)C)NC(=O)[C@](C)(CC(C)C)NC(=O)[C@@H](NC(=O)[C@H](CO)NC(=O)[C@H](Cc1ccc(O)cc1)NC(=O)[C@H](CC(=O)O)NC(=O)[C@H](CO)NC(=O)[C@@H](NC(=O)[C@H](Cc1ccccc1)NC(=O)[C@@H](NC(=O)CNC(=O)[C@H](CCC(=O)O)NC(=O)C(C)(C)NC(=O)[C@@H](N)Cc1c[nH]cn1)[C@@H](C)O)[C@@H](C)O)[C@@H](C)CC)[C@@H](C)CC)C(=O)N[C@@H](CCC(=O)O)C(=O)NCC(=O)NCC(=O)N1CCC[C@H]1C(=O)N[C@@H](CO)C(=O)N[C@@H](CO)C(=O)NCC(=O)N[C@@H](C)C(=O)N1CCC[C@H]1C(=O)N1CCC[C@H]1C(=O)N1CCC[C@H]1C(=O)N[C@@H](CO)C(N)=O) [Example 55] | 6.24 | 7.29 | 
6 | Y[Aib]EGTFTSDYSI[αMeL]LDEK([AEEA-AEEA-γGlu-C20 diacid])AQHAFIEYLIEGGPSSGAPPPS-NH2 (N-terminus assumed; SMILES CC[C@H](C)[C@H](NC(=O)[C@H](CC(C)C)NC(=O)[C@H](Cc1ccc(O)cc1)NC(=O)[C@H](CCC(=O)O)NC(=O)[C@@H](NC(=O)[C@H](Cc1ccccc1)NC(=O)[C@H](C)NC(=O)[C@H](Cc1c[nH]cn1)NC(=O)[C@H](CCC(N)=O)NC(=O)[C@H](C)NC(=O)[C@H](CCCCNC(=O)COCCOCCNC(=O)COCCOCCNC(=O)CC[C@H](NC(=O)CCCCCCCCCCCCCCCCCCC(=O)O)C(=O)O)NC(=O)[C@H](CCC(=O)O)NC(=O)[C@H](CC(=O)O)NC(=O)[C@H](CC(C)C)NC(=O)[C@](C)(CC(C)C)NC(=O)[C@@H](NC(=O)[C@H](CO)NC(=O)[C@H](Cc1ccc(O)cc1)NC(=O)[C@H](CC(=O)O)NC(=O)[C@H](CO)NC(=O)[C@@H](NC(=O)[C@H](Cc1ccccc1)NC(=O)[C@@H](NC(=O)CNC(=O)[C@H](CCC(=O)O)NC(=O)C(C)(C)NC(=O)[C@@H](N)Cc1ccc(O)cc1)[C@@H](C)O)[C@@H](C)O)[C@@H](C)CC)[C@@H](C)CC)C(=O)N[C@@H](CCC(=O)O)C(=O)NCC(=O)NCC(=O)N1CCC[C@H]1C(=O)N[C@@H](CO)C(=O)N[C@@H](CO)C(=O)NCC(=O)N[C@@H](C)C(=O)N1CCC[C@H]1C(=O)N1CCC[C@H]1C(=O)N1CCC[C@H]1C(=O)N[C@@H](CO)C(N)=O) [Example 56] | 0.148 | 10.3 | 
7 | Y[Aib]EGTFTSDYSILLD[Aib]IAQK([AEEA-AEEA-γGlu-C20 diacid])AFIEYLIEGGPSSGAPPPS-NH2 (N-terminus assumed; SMILES CC[C@H](C)[C@H](NC(=O)[C@H](CC(C)C)NC(=O)[C@H](Cc1ccc(O)cc1)NC(=O)[C@H](CCC(=O)O)NC(=O)[C@@H](NC(=O)[C@H](Cc1ccccc1)NC(=O)[C@H](C)NC(=O)[C@H](CCCCNC(=O)COCCOCCNC(=O)COCCOCCNC(=O)CC[C@H](NC(=O)CCCCCCCCCCCCCCCCCCC(=O)O)C(=O)O)NC(=O)[C@H](CCC(N)=O)NC(=O)[C@H](C)NC(=O)[C@@H](NC(=O)C(C)(C)NC(=O)[C@H](CC(=O)O)NC(=O)[C@H](CC(C)C)NC(=O)[C@H](CC(C)C)NC(=O)[C@@H](NC(=O)[C@H](CO)NC(=O)[C@H](Cc1ccc(O)cc1)NC(=O)[C@H](CC(=O)O)NC(=O)[C@H](CO)NC(=O)[C@@H](NC(=O)[C@H](Cc1ccccc1)NC(=O)[C@@H](NC(=O)CNC(=O)[C@H](CCC(=O)O)NC(=O)C(C)(C)NC(=O)[C@@H](N)Cc1ccc(O)cc1)[C@@H](C)O)[C@@H](C)O)[C@@H](C)CC)[C@@H](C)CC)[C@@H](C)CC)C(=O)N[C@@H](CCC(=O)O)C(=O)NCC(=O)NCC(=O)N1CCC[C@H]1C(=O)N[C@@H](CO)C(=O)N[C@@H](CO)C(=O)NCC(=O)N[C@@H](C)C(=O)N1CCC[C@H]1C(=O)N1CCC[C@H]1C(=O)N1CCC[C@H]1C(=O)N[C@@H](CO)C(N)=O) [Example 13] | 0.296 | 31.1 | 
8 | YXEGTXTSDASIXLDEKAQXEFIXYLIEGGPSSGAPPPS (Aib2; αMeF(2F)6; αMeL13; K17((2-[2-(2-Amino-ethoxy)-ethoxy]-acetyl)2-(γ-Glu)-CO-(CH2)18-CO2H); Aib20; D-Glu24; C-terminal NH2) [Example 192] | 0.118 | 2.89 | 
9 | YXEGTXTSDYSIXLDXKAQXEFIXYLIEGGPSSGAPPPS (Aib2; αMeF(2F)6; αMeL13; Dab16; K17((2-[2-(2-Amino-ethoxy)-ethoxy]-acetyl)2-(γ-Glu)-CO-(CH2)16-CO2H); Aib20; D-Glu24; C-terminal NH2) [Example 209] | 0.0664 | 1.43 | 
10 | YXEGTXTSDYSIXLDXKAQXEFIXYLIEGGPSSGAPPPS (Aib2; αMeF(2F)6; αMeL13; Dap16; K17((2-[2-(2-Amino-ethoxy)-ethoxy]-acetyl)2-(γ-Glu)-CO-(CH2)16-CO2H); Aib20; D-Glu24; C-terminal NH2) [Example 210] | 0.0399 | 1.58 | 
11 | YXEGTXTSDYSIXLDEKAQXEFIXYLIEGGPSSGAPPPS (Aib2; αMeF(2F)6; αMeL13; K17((2-[2-(2-Amino-ethoxy)-ethoxy]-acetyl)2-(γ-Glu)-CO-(CH2)14-CO2H); Aib20; D-Glu24; C-terminal NH2) [Example 208] | 0.0537 | 2.13 | 
12 | YXEGTXTSDXSIXLDEKAQXTFIXYLIEGGPSSGAPPPS (Aib2; αMeF(2F)6; Aib10; αMeL13; K17((2-[2-(2-Amino-ethoxy)-ethoxy]-acetyl)2-(γ-Glu)-CO-(CH2)18-CO2H); Aib20; D-Glu24; C-terminal NH2) [Example 160] | 5.98 | 14.4 | 
13 | YXEGTXTSDYSIXLDKKAQXTFIEYLIEGGPSSGAPPPS (Aib2; αMeF6; αMeL13; K17((2-[2-(2-Amino-ethoxy)-ethoxy]-acetyl)2-(γ-Glu)-CO-(CH2)18-CO2H); Aib20; C-terminal NH2) [Example 139] | 0.036 |  | 105
14 | XXEGTXTSDYSIXLDEKAQXEFIEYLIEGGPSSGAPPPS (DesTyr1; Aib2; αMeF(2F)6; αMeL13; K17((2-[2-(2-Amino-ethoxy)-ethoxy]-acetyl)2-(γ-Glu)-CO-(CH2)18-CO2H); Aib20; C-terminal NH2) [Example 134] | 0.14 |  | 60.5
15 | Y[Aib]EGTFTSDYSILLDKK([AEEA-AEEA-γGlu-C20 diacid])AQ[Aib]AFIEYLIEAGPSSGAPPPS-NH2 (N-terminus assumed; SMILES CC[C@H](C)[C@H](NC(=O)[C@H](CC(C)C)NC(=O)[C@H](Cc1ccc(O)cc1)NC(=O)[C@H](CCC(=O)O)NC(=O)[C@@H](NC(=O)[C@H](Cc1ccccc1)NC(=O)[C@H](C)NC(=O)C(C)(C)NC(=O)[C@H](CCC(N)=O)NC(=O)[C@H](C)NC(=O)[C@H](CCCCNC(=O)COCCOCCNC(=O)COCCOCCNC(=O)CC[C@H](NC(=O)CCCCCCCCCCCCCCCCCCC(=O)O)C(=O)O)NC(=O)[C@H](CCCCN)NC(=O)[C@H](CC(=O)O)NC(=O)[C@H](CC(C)C)NC(=O)[C@H](CC(C)C)NC(=O)[C@@H](NC(=O)[C@H](CO)NC(=O)[C@H](Cc1ccc(O)cc1)NC(=O)[C@H](CC(=O)O)NC(=O)[C@H](CO)NC(=O)[C@@H](NC(=O)[C@H](Cc1ccccc1)NC(=O)[C@@H](NC(=O)CNC(=O)[C@H](CCC(=O)O)NC(=O)C(C)(C)NC(=O)[C@@H](N)Cc1ccc(O)cc1)[C@@H](C)O)[C@@H](C)O)[C@@H](C)CC)[C@@H](C)CC)C(=O)N[C@@H](CCC(=O)O)C(=O)N[C@@H](C)C(=O)NCC(=O)N1CCC[C@H]1C(=O)N[C@@H](CO)C(=O)N[C@@H](CO)C(=O)NCC(=O)N[C@@H](C)C(=O)N1CCC[C@H]1C(=O)N1CCC[C@H]1C(=O)N1CCC[C@H]1C(=O)N[C@@H](CO)C(N)=O) [Example 86] | 0.0401 | 3.74 | 
